The source of these data is patent publication US7125969, “ETS-related gene overexpressed in human breast and epithelial cancers” (The Regents of the University of California).

Series [1] deals with T1, ESX (full-length, His-tagged) (Homo sapiens, UniProt P78545 SEQ:1-371).
T1 sequence: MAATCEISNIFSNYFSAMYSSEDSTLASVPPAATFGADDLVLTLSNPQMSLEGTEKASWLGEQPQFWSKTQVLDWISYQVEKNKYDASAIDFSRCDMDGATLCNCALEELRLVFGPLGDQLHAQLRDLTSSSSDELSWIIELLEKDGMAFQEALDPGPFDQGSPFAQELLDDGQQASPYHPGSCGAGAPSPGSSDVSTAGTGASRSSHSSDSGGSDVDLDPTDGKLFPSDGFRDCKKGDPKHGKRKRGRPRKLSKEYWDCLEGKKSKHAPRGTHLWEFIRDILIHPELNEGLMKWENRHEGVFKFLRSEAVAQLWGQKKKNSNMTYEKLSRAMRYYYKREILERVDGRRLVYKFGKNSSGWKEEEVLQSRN
Put plainly: EMSA; high-affinity sequence-specific; ~1 ng protein, 0.3 pmol probe. As to conditions: tags: His-tag (pRSETA), E. coli BL21(DE3)pLysS; label: end-labeled. The procedure:
(§1) Electrophoretic mobility shift assay (EMSA) was performed as previously described (Scott et al. (1994) *J. Biol. Chem.* 269: 19848–19858), using approximately one ng of ESX protein per condition and 0.3 pmol of end-labeled TA5 probe (+cold competitor). TA5 is a duplexed 31-mer oligonucleotide from the HER2/neu promoter, extending from −50 bp to −20 bp relative to the major transcriptional start site, that includes an Ets response element.
A general note: Mobility shift assays separate free from complexed probe on a gel.

Series [2] has as its target T2, ESX (271-371, ETS DNA-binding domain) (Homo sapiens, UniProt P78545 SEQ:271-371).
T2 sequence: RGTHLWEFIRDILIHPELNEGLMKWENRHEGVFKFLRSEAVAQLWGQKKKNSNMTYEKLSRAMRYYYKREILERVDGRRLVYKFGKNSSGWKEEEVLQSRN
Put plainly: EMSA; affinity comparable to full-length. As to conditions: label: end-labeled.

Series [3] has as its target T1, ESX (full-length, His-tagged). The experiment in a line: competition; GGAA core mutation; fails to compete at 50-fold excess. Conditions: tags: His-tag (pRSETA), E. coli BL21(DE3)pLysS. The procedure: (§2) Five different competing unlabeled (cold) oligonucleotides containing specific mutations in the wild-type (WT) TA5 (SEQ ID NO:32) sequence, m1–m5 (SEQ ID NOs:33–37) were added at 50-fold molar excess; gel lanes containing the excess cold competitors are labeled. […] The antisense strand sequence as shown (~40 bp to ~26 bp upstream of major transcriptional start site in HER2/neu promoter) is marked with asterisk at the hypersensitivity site within Ets response element (GGAA on sense strand). FIGS. 8c and 8d show the induction of CAT activity from two different ETS-responsive reporter constructs (p3TA5-BLCAT5, pHER2-CAT) in COS cells cotransfected with an ESX expression plasmid (pcDNAI-ESX). Mutant reporter plasmids (p3TA5P-BLCAT5, pHER2m-CAT) are identical to their normal counterparts except for alterations in the Ets response element within the TA5 sequence (GGAA to GAGA and GGAA to TTAA, respectively).
as §1

Series [4] has the same target. The experiment in a line: competition; flanking mutation; relatively effective cold competitor at 50-fold excess. Conditions: tags: His-tag (pRSETA), E. coli BL21(DE3)pLysS. As to the method: as §2, §1

B1: TA5 WT (HER2/neu promoter -50 to -20) (dsDNA)
DNA 1: GGAGGAGGGCTGCTTGAGGAAGTATAAGAAT
DNA 2: ATTCTTATACTTCCTCAAGCAGCCCTCCTCC
B1: the binding result in series [1] and in series [2] was “binds” throughout.

B2: TA5 m4 (dsDNA)
DNA 1: GGAGGAGGGCTGCTTGACCAAGTATAAGAAT
DNA 2: ATTCTTATACTTGGTCAAGCAGCCCTCCTCC
With B2, the binding result in series [3] is listed as “no binding”.

B3: TA5 m3 (dsDNA)
DNA 1: GGAGGAGGGCTGCTTGAGAGAGTATAAGAAT
DNA 2: ATTCTTATACTCTCTCAAGCAGCCCTCCTCC
As for B3, in series [3], the binding result was “no binding”.

B4: TA5 m5 (dsDNA)
DNA 1: GGAGGAGGGCTGCTTGAGGAAGCATAAGAAT
DNA 2: ATTCTTATGCTTCCTCAAGCAGCCCTCCTCC
As to B4, the binding result in series [4] is “binds”.

B5: TA5 m2 (dsDNA)
DNA 1: GGAGGAGGGCTGCTTGCGGAAGTATAAGAAT
DNA 2: ATTCTTATACTTCCGCAAGCAGCCCTCCTCC
On to B5, for which, in series [4], the binding result is “binds”.

B6: TA5 m1 (dsDNA)
DNA 1: GGAGGAGGTATGCTTGAGGAAGTATAAGAAT
DNA 2: ATTCTTATACTTCCTCAAGCATACCTCCTCC
Regarding B6, the binding result in series [4] is “binds”.
